Patent publication US20240100176A1 (Eli Lilly, published 2024)

Key:
Test in all cases: capture ELISA: Ab1 on anti-human IgG Fc, His-tagged receptor at 0.2 µg/mL, anti-His HRP
[1] = target: T1, hexahistidine tagged human IL-4Rα ECD L43G (human, UniProt P24394 26-232)
T1 construct: not shown: hexahistidine tag
Description: (§1) Example 2d. […] Briefly, thirty surface amino acid residue substitutions were introduced individually into hexahistidine tagged human IL-4Rα extra cellular domain (ECD) as follows: K2D, E6R, K22D, P26R, T31R, F41A, L42G, L43G, E45R, E52R, G56R, D66R, A71R, Q82G, K87D, E94R, H107A, D108R, P124R, D125R, D143R, R148D, L155R, R160D, S164R, S168R, Q181R, P192R, K195D, or H197G. Each mutant protein having a single amino acid residue substitution as described above was transiently expressed in CHO cells and purified using standard immobilized metal affinity chromatography techniques. […] The plates were then washed 3 times with PBST and the exemplified human IL-4Rα antibody was added to the wells at a final concentration of 1 μg/mL in PBS-casein and incubated for 1 hour at room temperature. The plates were washed 3 times with PBST, the IL-4Rα mutant proteins were serially diluted 5-fold from 1 μg/mL for 3 points. in PBS-casein and added to the plate at 50 μL/well and incubated for 1 hour at room temperature. The plates were washed 3 times with PBST and a 1000-fold dilution of anti-histidine tag antibody HRP conjugate (R&D Systems, Cat. #MAB050H) in PBS-casein was added and incubated for 45 minutes at room temperature. The plates were washed 3 times, TMB substrate (Pierce, Cat. #34028) was added per manufacturer instructions, the reaction was quenched with H₂SO₄, and absorbance was read at 450 nm on an ELISA plate reader.

[2] = target: T2, hexahistidine tagged human IL-4Rα ECD K22D (human, UniProt P24394 26-232)
T2 construct: not shown: hexahistidine tag
Description: as §1

[3] = target: T3, hexahistidine tagged human IL-4Rα ECD R160D (human, UniProt P24394 26-232)
T3 construct: not shown: hexahistidine tag
Description: as §1

[4] = target: T4, hexahistidine tagged human IL-4Rα ECD D143R (human, UniProt P24394 26-232)
T4 construct: not shown: hexahistidine tag
Description: as §1

[5] = target: T5, hexahistidine tagged human IL-4Rα ECD K87D (human, UniProt P24394 26-232)
T5 construct: not shown: hexahistidine tag
Description: as §1

[6] = target: T6, hexahistidine tagged human IL-4Rα ECD D125R (human, UniProt P24394 26-232)
T6 construct: not shown: hexahistidine tag
Description: as §1

[7] = target: T7, hexahistidine tagged human IL-4Rα ECD E94R (human, UniProt P24394 26-232)
T7 construct: not shown: hexahistidine tag
Description: as §1

[8] = target: T8, hexahistidine tagged human IL-4Rα ECD H197G (human, UniProt P24394 26-232)
T8 construct: not shown: hexahistidine tag
Description: as §1

[9] = target: T9, hexahistidine tagged human IL-4Rα ECD T31R (human, UniProt P24394 26-232)
T9 construct: not shown: hexahistidine tag
Description: as §1

[10] = target: T10, hexahistidine tagged human IL-4Rα ECD S168R (human, UniProt P24394 26-232)
T10 construct: not shown: hexahistidine tag
Description: as §1

[11] = target: T11, hexahistidine tagged human IL-4Rα ECD E6R (human, UniProt P24394 26-232)
T11 construct: not shown: hexahistidine tag
Description: as §1

[12] = target: T12, hexahistidine tagged human IL-4Rα ECD P192R (human, UniProt P24394 26-232)
T12 construct: not shown: hexahistidine tag
Description: as §1

[13] = target: T13, hexahistidine tagged human IL-4Rα ECD Q82G (human, UniProt P24394 26-232)
T13 construct: not shown: hexahistidine tag
Description: as §1

[14] = target: T14, hexahistidine tagged human IL-4Rα ECD L155R (human, UniProt P24394 26-232)
T14 construct: not shown: hexahistidine tag
Description: as §1

[15] = target: T15, hexahistidine tagged human IL-4Rα ECD E45R (human, UniProt P24394 26-232)
T15 construct: not shown: hexahistidine tag
Description: as §1

[16] = target: T16, hexahistidine tagged human IL-4Rα ECD P26R (human, UniProt P24394 26-232)
T16 construct: not shown: hexahistidine tag
Description: as §1

[17] = target: T17, hexahistidine tagged human IL-4Rα ECD P124R (human, UniProt P24394 26-232)
T17 construct: not shown: hexahistidine tag
Description: as §1

[18] = target: T18, hexahistidine tagged human IL-4Rα ECD S164R (human, UniProt P24394 26-232)
T18 construct: not shown: hexahistidine tag
Description: as §1

T11 sequence (P24394 other isoform, or with tags, fused parts or gaps): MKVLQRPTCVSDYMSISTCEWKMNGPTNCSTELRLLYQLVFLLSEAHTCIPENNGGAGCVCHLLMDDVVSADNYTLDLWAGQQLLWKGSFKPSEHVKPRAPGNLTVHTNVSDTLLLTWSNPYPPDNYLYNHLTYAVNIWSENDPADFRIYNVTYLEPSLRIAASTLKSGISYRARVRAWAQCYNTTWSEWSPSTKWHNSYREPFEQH
T9 sequence (P24394 26-232 T56R): as the sequence (P24394 other isoform, or with tags, fused parts or gaps) above, with R6E, T31R counted along it
T4 sequence (P24394 26-232 D168R): as the sequence (P24394 other isoform, or with tags, fused parts or gaps) above, with R6E, D143R counted along it
T14 sequence (P24394 26-232 L180R): as the sequence (P24394 other isoform, or with tags, fused parts or gaps) above, with R6E, L155R counted along it
T6 sequence (P24394 26-232 D150R): as the sequence (P24394 other isoform, or with tags, fused parts or gaps) above, with R6E, D125R counted along it
T15 sequence (P24394 26-232 E70R): as the sequence (P24394 other isoform, or with tags, fused parts or gaps) above, with R6E, E45R counted along it
T7 sequence (P24394 26-232 E119R): as the sequence (P24394 other isoform, or with tags, fused parts or gaps) above, with R6E, E94R counted along it
T10 sequence (P24394 26-232 S193R): as the sequence (P24394 other isoform, or with tags, fused parts or gaps) above, with R6E, S168R counted along it
T5 sequence (P24394 26-232 K112D): as the sequence (P24394 other isoform, or with tags, fused parts or gaps) above, with R6E, K87D counted along it
T18 sequence (P24394 26-232 S189R): as the sequence (P24394 other isoform, or with tags, fused parts or gaps) above, with R6E, S164R counted along it
T8 sequence (P24394 26-232 H222G): as the sequence (P24394 other isoform, or with tags, fused parts or gaps) above, with R6E, H197G counted along it
T13 sequence (P24394 26-232 Q107G): as the sequence (P24394 other isoform, or with tags, fused parts or gaps) above, with R6E, Q82G counted along it
T12 sequence (P24394 26-232 P217R): as the sequence (P24394 other isoform, or with tags, fused parts or gaps) above, with R6E, P192R counted along it
T2 sequence (P24394 26-232 K47D): as the sequence (P24394 other isoform, or with tags, fused parts or gaps) above, with R6E, K22D counted along it
T16 sequence (P24394 26-232 P51R): as the sequence (P24394 other isoform, or with tags, fused parts or gaps) above, with R6E, P26R counted along it
T3 sequence (P24394 26-232 R185D): as the sequence (P24394 other isoform, or with tags, fused parts or gaps) above, with R6E, R160D counted along it
T1 sequence (P24394 26-232 L68G): as the sequence (P24394 other isoform, or with tags, fused parts or gaps) above, with R6E, L43G counted along it
T17 sequence (P24394 26-232 P149R): as the sequence (P24394 other isoform, or with tags, fused parts or gaps) above, with R6E, P124R counted along it

ELISA (OD450) [1]: 1.7 OD450
ELISA (OD450) [2]: 1.3 OD450
ELISA (OD450) [3]: 1.7 OD450
ELISA (OD450) [4]: 1.69 OD450
ELISA (OD450) [5]: 1.56 OD450
ELISA (OD450) [6]: 1.61 OD450
ELISA (OD450) [7]: 1.64 OD450
ELISA (OD450) [8]: 1.6 OD450
ELISA (OD450) [9]: 1.49 OD450
ELISA (OD450) [10]: 1.71 OD450
ELISA (OD450) [11]: 1.5 OD450
ELISA (OD450) [12]: 1.75 OD450
ELISA (OD450) [13]: 1.53 OD450
ELISA (OD450) [14]: 1.68 OD450
ELISA (OD450) [15]: 1.86 OD450
ELISA (OD450) [16]: 1.52 OD450
ELISA (OD450) [17]: 1.7 OD450
ELISA (OD450) [18]: 1.77 OD450
B1: anti-human IL-4Rα antibody Ab1 (antibody, human IgG4 S228P, kappa)
heavy: QVQLVESGGGLVQPGGSLRLSCVASGFTFSHSSMNWVRQAPGKGLEWVSYISRATGAVYYADSVKGRFTISRDNAKNSLYLQMNSLRDEDTAVYYCAREPVFDYWGQGTLVTVSSASTKGPCVFPLAPCSRSTSESTAALGCLVKDYFPEPVTVSWNSGALTSGVHTFPAVLQSSGLYSLSSVVTVPSSSLGTKTYTCNVDHKPSNTKVDKRVESKYGPPCPPCPAPEFLGGPSVFLFPPKPKDTLMISRTPEVTCVVVDVSQEDPEVKFNWYVDGVEVHNAKTKPREEQFNSTYRVVSVLTVLHQDWLNGKEYKCKVSNKGLPSSIEKTISKAKGQPREPQVYTLPPSREEMTKNQVSLTCLVKGFYPSDICVEWESNGQPENNYKTTPPVLDSDGSFFLYSRLTVDKSRWQQGNVFSCSVMHEALHNHYTQKSLSLSLG
light: DIQMTQSPSAMSASVGDRVTITCRASQDISNYLAWFQQKPGKVPTRLIYAASSLQSGVPSRFSGSGSGTEFTLTISSLQPEDFATYYCLQWSSYPRTFGQGTKVEIKRTVAAPSVFIFPPSDEQLKSGTASVVCLLNNFYPREAKVQWKVDNALQSGNSQESVTEQDSKDSTYSLSSTLTLSKADYEKHKVYACEVTHQGLSSPVTKSFNRGEC
notes: human kappa light chain; also called anti-human IL-4Rα Ab1; unconjugated Ab1
